Reference: patent publication US20150139999A1 (RUTGERS THE STATE UNIVERSITY OF NEW JERSEY, published 2015)

Target: T1, B18-FL (Vaccinia virus strain Western Reserve B18 protein with a FLAG epitope at the C terminus, sec (Vaccinia virus strain Western Reserve, UniProt P25213 20-351))
T1 construct: mature
Test: covalent crosslinking in solution, SDS-PAGE

B1: [^32P]-His-Strep-IFN-λ1-P (secreted human IFN-λ1 with N-terminal His-Strep tag and C-terminal phosphorylation site) (ligand)
chain: HHHHHHPDHWSHPQFEKGPVPTSKPTTTGKGCHIGRFKSLSPQELASFKKARDALEESLKLKNWSCSSPVFPGNWDLRLLQVRERPVALEAELALTLKVLEAAAGPALEDVLDQPLHTLHHILSQLQACIQPQPTAGPRPRGRLHHWLHRLQEAPKKESAGCLEASVTFNLFRLLTRDLKYVADGNLCLRTSTHPESTRRASVA
notes: mature; also called His-Strep-IFN-λ1J-P
B1: no binding.
